Results taken from patent US20100221257A1 (AstraZeneca / MedImmune, published 2010).

B1: Antibody 6GL IgG2 (antibody, V domains shown)
VH: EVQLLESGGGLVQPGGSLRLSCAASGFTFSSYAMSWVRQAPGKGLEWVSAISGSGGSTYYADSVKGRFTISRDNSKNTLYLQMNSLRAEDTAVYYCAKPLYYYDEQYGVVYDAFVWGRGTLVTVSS
VL: QSVLTQPPSVSGAPGQRVTISCTGSSSNIGAGYDVHWYQQLPGTAPKLLIYGDTHRPSGVPDRFSGSKSGTSASLAITGLQAEDEADYYCQSYDTVRLHHVFGGGTKLTVL
notes: Germlined IgG2, lambda light chain; also called Antibody 6 IgG2; 28PL GL
B2: Antibody 10GL IgG2 (antibody, V domains shown)
VH: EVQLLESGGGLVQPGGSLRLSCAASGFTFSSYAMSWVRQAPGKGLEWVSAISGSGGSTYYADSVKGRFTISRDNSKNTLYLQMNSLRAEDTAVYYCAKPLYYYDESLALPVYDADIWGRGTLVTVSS
VL: QSVLTQPPSVSGAPGQRVTISCTGSSSNIGAGYDVHWYQQLPGTAPKLLIYGDTHRPSGVPDRFSGSKSGTSASLAITGLQAEDEADYYCQSYDTRADDAHFGGGTKLTVL
notes: Germlined IgG2, lambda light chain
B3: Antibody 8GL IgG2 (antibody, V domains shown)
VH: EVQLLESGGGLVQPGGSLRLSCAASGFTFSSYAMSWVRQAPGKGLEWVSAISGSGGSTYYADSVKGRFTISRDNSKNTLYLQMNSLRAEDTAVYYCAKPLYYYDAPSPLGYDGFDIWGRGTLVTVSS
VL: QSVLTQPPSVSGAPGQRVTISCTGSSSNIGAGYDVHWYQQLPGTAPKLLIYGDTHRPSGVPDRFSGSKSGTSASLAITGLQAEDEADYYCQSYDTHLVAHVFGGGTKLTVL
notes: as for B2

Assays:
[1] = molecular target: T1, human IL-1R1, endogenous on human cells (HeLa cells; whole blood) (human, UniProt P14778 18-569); test: cell-based or functional assay
T1 sequence (looked up): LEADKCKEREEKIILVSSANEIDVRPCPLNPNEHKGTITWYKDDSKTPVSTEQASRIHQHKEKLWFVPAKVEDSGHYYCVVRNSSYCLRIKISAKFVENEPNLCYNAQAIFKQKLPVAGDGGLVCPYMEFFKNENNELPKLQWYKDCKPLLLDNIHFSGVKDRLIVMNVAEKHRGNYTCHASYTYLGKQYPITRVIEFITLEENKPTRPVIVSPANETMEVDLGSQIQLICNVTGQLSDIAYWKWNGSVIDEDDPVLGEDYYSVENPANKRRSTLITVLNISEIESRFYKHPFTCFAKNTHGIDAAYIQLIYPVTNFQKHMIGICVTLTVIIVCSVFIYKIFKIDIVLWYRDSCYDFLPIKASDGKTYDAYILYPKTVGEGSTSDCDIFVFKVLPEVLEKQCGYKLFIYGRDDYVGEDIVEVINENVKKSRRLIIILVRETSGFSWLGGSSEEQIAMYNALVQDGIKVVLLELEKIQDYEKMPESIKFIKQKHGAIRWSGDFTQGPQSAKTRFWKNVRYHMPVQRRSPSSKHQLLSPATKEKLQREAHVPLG

[2] = molecular target: T2, cynomolgus IL-1R1, endogenous on CYNOM-K1 cells (cynomolgus monkey, UniProt A0A7N9CMI5 18-569); test: cell-based or functional assay
T2 sequence: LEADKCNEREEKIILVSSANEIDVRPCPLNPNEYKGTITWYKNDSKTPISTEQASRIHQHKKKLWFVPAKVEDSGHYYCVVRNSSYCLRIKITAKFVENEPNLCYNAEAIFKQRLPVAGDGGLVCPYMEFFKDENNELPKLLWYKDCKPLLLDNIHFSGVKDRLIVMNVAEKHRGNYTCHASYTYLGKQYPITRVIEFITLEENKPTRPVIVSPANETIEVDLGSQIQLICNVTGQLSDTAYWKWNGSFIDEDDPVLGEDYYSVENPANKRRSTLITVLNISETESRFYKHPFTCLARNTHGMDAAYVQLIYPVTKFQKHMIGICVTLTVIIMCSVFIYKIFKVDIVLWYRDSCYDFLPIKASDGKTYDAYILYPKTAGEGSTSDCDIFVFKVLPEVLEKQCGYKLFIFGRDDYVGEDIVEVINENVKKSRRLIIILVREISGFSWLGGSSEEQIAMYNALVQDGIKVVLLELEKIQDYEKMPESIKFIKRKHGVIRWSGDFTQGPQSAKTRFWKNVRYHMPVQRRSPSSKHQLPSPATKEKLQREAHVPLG

[3] = molecular target: T1, human IL-1R1, endogenous on human cells …; test: cell-based or functional assay; remark: listed apart in the source
[4] = molecular target: T3, human histidine tagged (HIS) IL1RFc fusion protein (human); test: HTRF receptor-ligand assay, IgG inhibiting HIS FLAG IL-1Ra binding to cryptate labelled human HIS IL1RFc
T3 construct: Biotinylated or cryptate labelled in some assays; also called human HIS IL1RFc; huIL-1R1-Fc
Procedure: The ability of lead antibodies to inhibit IL-1Ra to IL-1R1 was assessed in a receptor-ligand binding HTRF® (Homogeneous Time-Resolved Fluorescence) assay format for inhibition of HIS FLAG tagged human IL1Ra (In house, E. Coli expressed; HIS FLAG IL-1RA) binding to human histidine tagged (HIS) IL1RFc fusion protein (in house), as described in the Materials and methods section.
A titration of inhibitor was used in order to establish the clone potency as measured by IC₅₀ values in the assay. All dilutions were carried out in assay buffer as for ligand binding assay above. 5 μl of a titration of inhibitor was added to a 384 well low volume assay plate (Costar 3676). This was then followed by addition of 0.4 nM cryptate labelled HIS IL1RFc. Assay plates were then sealed and incubated at room temperature in dark for 1 hour.

Binder | mean IC50 for the 6 donors, inhibition of IL-1β induced IL-6 production in human whole blood [1] [pM] | IC50, inhibition of IL-1β induced IL-8 release from CYNOM-K1 cells, experiment 1 [2] [nM] | IC50, inhibition of IL-1β induced IL-8 release from CYNOM-K1 cells, experiment 2 [2] [nM] | IC50, inhibition of IL-1β induced IL-6 production in human whole blood, donor 1 [3] [pM] | IC50, inhibition of IL-1β induced IL-6 production in human whole blood, donor 2 [3] [pM] | IC50, inhibition of IL-1β induced IL-6 production in human whole blood, donor 3 [3] [pM] | IC50, inhibition of IL-1β induced IL-6 production in human whole blood, donor 4 [3] [pM] | IC50, inhibition of IL-1β induced IL-6 production in human whole blood, donor 5 [3] [pM] | IC50, inhibition of IL-1β induced IL-6 production in human whole blood, donor 6 [3] [pM] | IC50 [4] [nM]
B1 | 229 | 0.8 | 0.6 | 91 | 295 | 116 | 309 | 167 | 321 | 0.181
B2 |  | 0.9 | 0.7 |  |  |  |  |  |  | 0.323
B3 |  | 4.2 | 2.5 |  |  |  |  |  |  | 0.363
